From US10280205B2, “Method for treating cancer with an activated T lymphocyte that selectively recognizes a cancer cell consisting of specific peptide” (immatics biotechnologies GmbH, priority 2015, dated 2019)

Molecular target: HLA-A*02:01 (Homo sapiens, UniProt P04439, D140Y/D185E/D98H/E176V/E277Q/G131W/G231S/I119V/I121R/I166T/I218V/L300P/L318F/N151K/N90K/P208A/P217A/Q86G/Q94H/R138H/R169H/T345S)
Test: MHC binding assay: UV-ligand exchange with beta2m ELISA (exchange yield)
Details: binding to HLA-A*02:01, β2m ELISA
Method in brief: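 Peptide–HLA-A*02:01 complexes formed by UV-induced exchange of a photocleavable ligand for the test peptide. Exchange products diluted 100-fold and captured on streptavidin-coated plates. Stabilized complexes detected with HRP anti-β2m (1 h, 37° C.) and TMB, A450; exchange yield reported.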

Substance | Peptide exchange (MHC class I binding score, peptide exchange yield)
455 (SLLKEPQKVQL; listed as Homo sapiens) [compound 455] | “++” (≥20% = ++)
109 (IILSILEQA; listed as Homo sapiens) [compound 109] | “++++” (≥75% = ++++)
497 (GLLEKLTAI; listed as Homo sapiens) [compound 497] | “+++” (≥50 = +++)
89 (YILPTETIYV; listed as Homo sapiens) [compound 89] | “++++” (≥75% = ++++)
91 (IMQDFPAEIFL; listed as Homo sapiens) [compound 91] | “++++” (≥75% = ++++)
584 (ALAEVAAMENV; listed as Homo sapiens) [compound 584] | “+++” (≥50 = +++)
173 (LLDSASAGLYL; listed as Homo sapiens) [compound 173] | “+++” (≥50 = +++)
461 (VMFRTPLASV; listed as Homo sapiens) [compound 461] | “++” (≥20% = ++)
73 (NIFDLQIYV; listed as Homo sapiens) [compound 73] | “+++” (≥50 = +++)
85 (KMSELRVTL; listed as Homo sapiens) [compound 85] | “+++” (≥50 = +++)
145 (FLATSGTLAGI; listed as Homo sapiens) [compound 145] | “++” (≥20% = ++)
94 (YLIDIKTIAI; listed as Homo sapiens) [compound 94] | “++” (≥20% = ++)
517 (LLMPIPEGLTL; listed as Homo sapiens) [compound 517] | “+++” (≥50 = +++)
399 (YLFEPLYHV; listed as Homo sapiens) [compound 399] | “+++” (≥50 = +++)
542 (RVWDISTVSSV; listed as Homo sapiens) [compound 542] | “+++” (≥50 = +++)
426 (RLADKSVLV; listed as Homo sapiens) [compound 426] | “+++” (≥50 = +++)
197 (ALGPEGGRV; listed as Homo sapiens) [compound 197] | “++” (≥20% = ++)
358 (ALDEYTSEL; listed as Homo sapiens) [compound 358] | “++++” (≥75% = ++++)
104 (STMEQNFLL; listed as Homo sapiens) [compound 104] | “++++” (≥75% = ++++)
480 (ALLEDSCHYL; listed as Homo sapiens) [compound 480] | “+++” (≥50 = +++)
327 (GLAPFTEGISFV; listed as Homo sapiens) [compound 327] | “+++” (≥50 = +++)
479 (SLFGNSGILENV; listed as Homo sapiens) [compound 479] | “+++” (≥50 = +++)
312 (IISDLTIAL; listed as Homo sapiens) [compound 312] | “+++” (≥50 = +++)
191 (LLQEGQALEYV; listed as Homo sapiens) [compound 191] | “++” (≥20% = ++)
277 (LLPPLESLATV; listed as Homo sapiens) [compound 277] | “++” (≥20% = ++)

Substance | Peptide exchange (MHC class I binding score, peptide exchange yield)
444 (GLLRDEALAEV; listed as Homo sapiens) [compound 444] | “+++” (≥50 = +++)
526 (RLAEVGQYEQV; listed as Homo sapiens) [compound 526] | “++” (≥20% = ++)
478 (YLLHEKLNL; listed as Homo sapiens) [compound 478] | “+++” (≥50 = +++)
256 (FLPPEHTIVYI; listed as Homo sapiens) [compound 256] | “+++” (≥50 = +++)
23 (VLLDDIFAQL; listed as Homo sapiens) [compound 23] | “+++” (≥50 = +++)
234 (ALMEDTGRQML; listed as Homo sapiens) [compound 234] | “++” (≥20% = ++)
92 (YLIPFTGIVGL; listed as Homo sapiens) [compound 92] | “++” (≥20% = ++)
26 (ALLELAEEL; listed as Homo sapiens) [compound 26] | “+++” (≥50 = +++)
189 (ALQRKLPYV; listed as Homo sapiens) [compound 189] | “+++” (≥50 = +++)
371 (FLQAHLHTA; listed as Homo sapiens) [compound 371] | “++++” (≥75% = ++++)
496 (FLVEKQPPQV; listed as Homo sapiens) [compound 496] | “+++” (≥50 = +++)
350 (ALLDVTHSELTV; listed as Homo sapiens) [compound 350] | “+++” (≥50 = +++)
457 (SLLPGNLVEKV; listed as Homo sapiens) [compound 457] | “+++” (≥50 = +++)
63 (YLLPSGGSVTL; listed as Homo sapiens) [compound 63] | “++” (≥20% = ++)
451 (LLLLDTVTMQV; listed as Homo sapiens) [compound 451] | “++” (≥20% = ++)
90 (TLLQIIETV; listed as Homo sapiens) [compound 90] | “+++” (≥50 = +++)
337 (HLLSELEAAPYL; listed as Homo sapiens) [compound 337] | “++++” (≥75% = ++++)
16 (VLFQGQASL; listed as Homo sapiens) [compound 16] | “+++” (≥50 = +++)
635 (SLDSTLHAV; listed as Homo sapiens) [compound 635] | “+++” (≥50 = +++)
49 (YLPAVFEEV; listed as Homo sapiens) [compound 49] | “+++” (≥50 = +++)
167 (KVLEVTEEFGV; listed as Homo sapiens) [compound 167] | “+++” (≥50 = +++)
388 (SLTIDGIRYV; listed as Homo sapiens) [compound 388] | “+++” (≥50 = +++)
128 (YLFDDPLSAV; listed as Homo sapiens) [compound 128] | “++” (≥20% = ++)
174 (ALAQYLITA; listed as Homo sapiens) [compound 174] | “+++” (≥50 = +++)
249 (LLDGFLVNV; listed as Homo sapiens) [compound 249] | “+++” (≥50 = +++)
